According to publication PMC3326319:

Key:
PhNob1Zn [1] = molecular target: T1, PhNob1Zn (Pyrococcus horikoshii, UniProt O58440 121-161); experiment: fluorescence anisotropy
T1 chain: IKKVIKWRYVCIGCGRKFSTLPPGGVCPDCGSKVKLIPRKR

PhNob1 = molecular target: T2, PhNob1 (Pyrococcus horikoshii, UniProt O58440 1-161); experiment: fluorescence anisotropy
T2 sequence: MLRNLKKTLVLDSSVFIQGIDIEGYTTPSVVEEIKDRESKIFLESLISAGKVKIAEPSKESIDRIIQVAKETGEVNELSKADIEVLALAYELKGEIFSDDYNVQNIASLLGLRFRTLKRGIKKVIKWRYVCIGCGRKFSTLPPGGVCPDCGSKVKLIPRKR

PhNob1Zn [2] = molecular target: T1, PhNob1Zn; experiment: NMR titration

Binder	Kd (PhNob1Zn [1])	Kd (PhNob1)	Kd (PhNob1Zn [2])
GACUGCCGGCGAUAAGCCGGAGGAAG (structured_RNA) [PhH40 (helix 40)]	2300 ± 100 nM	2000 ± 100 nM	
GACUGCCGGCGAUAAGCCGGAGGAAG (structured_RNA) [PhH40 unlabeled (gel filtration, NMR)]			< 1000 nM
UACAGGGCCCAUUGGGGCCCUGUA (structured_RNA) [ScH16 (stabilized)]	1500 ± 200 nM		
CCGGCGAUAAGCCGG (structured_RNA) [PhH40short (H40S)]	3100 ± 200 nM		
